This note sets out measurements from the domain aggregation screens of Martell et al. (2025).

The series can be described thus: soluble fraction after stress (log2 fold change); higher = more stays soluble; pooled small domains, quantitative proteomics. As to conditions: stress: pH 4. The gist of the method: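 Pooled custom libraries of small protein domains were stressed at pH 4 and then measured by high-throughput quantitative proteomics. The fold change in the amount of each domain that stays soluble after the acid stress serves as a measure of aggregation propensity. Fold changes are given on a log2 scale, and higher values mean more of the domain stayed soluble.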

As to “HMTKLTPLEVNLYAKKLANDPEFGSKHIEPGESFSQAEERLRVQLSQQEYVQKYSKYLKKLKASA”, the “soluble fraction (log2)” value was found to be 0.0433.
With “HMTKPAEVRIDELMNAAQTLFLAKGVEATTISEIIASVGVAKGTFYHYFESKQHIVEALKKRYID”, the “soluble fraction (log2)” value is -1.03.
“HMTKQNVVPLMYRMIDTLEQFIKADVPFNIETRLARVERLRETMVSSSVTTSEKFRQVLEAYTIETD”: the “soluble fraction (log2)” value is -1.53.
To “HMTKSEWLRESREHLGLSQTDLRNLLNTALNRSYDKSRISRWENSKENIPAEVVKQIESLIATR” belongs 0.406; to “HMTKTRTEILEYLKQNWSVTVSASDIKKHLEEKEIKANTTTIYRYLDKLLAEHVIIKYADAGSERAVYQYS”, -0.687; to “HMTKVIEFLVSDEEHGVRADKAFVSHNQKLSRSYFKKLILNGNLYINNKVNLDPSYKLIKGSTVRIILPE”, -0.698.
For “HMTKVKIDRLFSIVQMLVNRKSVTAKELADYFNVSVRTIYRDIEILSANGIPIYATQGKGGGISILEN” the value was -0.663; for “HMTKYEGLSLDLIIDGVVITHNLKLAKLDMNWLLDRLKENGWDNPKDIFYAYIDTAGNFRFQPKLKASRTR”, -0.906.
For “HMTKYREVLRMSAGGFSQRVIASTLSISRNTVASTLKRAREQNLDWEAVEQQRLSEKDIANLLFP” the value was 0.293; for “HMTLAEEFNNLNGKVITRETLESLLVKAEKEQNSTISNRIRKVLQAYTADTFLIELQHTESA”, -0.0269.
As to “HMTLALKQGSTGSTVKQVQQKLKNWGYYSGAVDGIFGSGTRKAVVLFQKRNKLTADGIVGSKTLEALGIYV”, the “soluble fraction (log2)” value was 0.0782.
For “HMTLDDSIALGRSLLDKGLMDFGTNLANLAEDKLRDFLSQQRYENLDDLFADIARGNRLPMFTAQQLLS” the value was -0.481; for “HMTLDVALSKEIKYMLKEEHYLPGDKLPSERKLAELFHVQRLTVRGALNLLLQDKTIISKPRSGYYVAPKR”, 0.225.
To “HMTLFDESGYTARELEIIREVANGLSNKEIADKLFLSEGTVKNYITGILAKENLSHRTALAVYYLTGRK” belongs -0.558; to “HMTLHEAMEKLFRQVGRPMTTKEIAEKLNENKWYQKADGSPLTPYQIYGRAKNYPALFHREGSIIYLKGS”, 0.136.
For “HMTLKTISLTEAIKNTNEGNYSKLVLDGNELTITEQGKETPSLKTYTEPGTSLKEQGFDLSKVEFEAREQS” the value was -0.011; for “HMTLNQEELMGKTEAILFAGGEPVSLDRIAQVLGVRTPVIDSIVSALQEKYNTPTSGIQLMRL”, -0.467; for “HMTLPELTDRELQILQLLSVGNSSQKIAKQLNISTHTVSTHRKQLLRKLGAQNGADLIRRAQKLGIL”, 0.0897.
Consider “HMTLQEFYARVGGDYNATLSRLPSEALVKKFILKYPGDPSFAQLKDALAAQDWELAFRASHTLKGVAQN”, for which the “soluble fraction (log2)” value is -0.493.
To “HMTLSAPMPGTVLKIHVKEGQRVRKGQTLVVLEAMKMEHRIQAPKAGEVTNLHFSEGDRVDMGEILVEIG” belongs -0.905; to “HMTLSDDEFEIIKSLIIDTLKEEALTINALTKKINHKEAKTIQVIRFLLDNGLVAENNLMKLFVI”, -1.54.
For “HMTLTIEDQLRRLRARLGRGRAFLFSDVLVNPHDRTEIAVTLLALLELIKRREAQASQSYLFGPIEVAAA” the value was -1.33; for “HMTLTLEQAAAIKNSEGEQYGKIESERLAAMSVQIDKAIKSNGHDPNKKADLERKLDAIGIILNARAAG”, -0.0482; for “HMTLVKRSAMVTAWSEFAGGRVNSKLIALQNGKAGDWIELENPQSGRKLRGRVQSDGSVRLGS”, 0.017.
For “HMTLYITDQMRKILDYVATNQEIDEKAVMDLLSIQRTRAYLIAKKMTDIGLLQVQGRGKTKTYRLAARS” the value was -0.285; for “HMTLYQIGDKVVHPMHGAGVIDSVVQRKVSGQVQEFYLLKLSVGNMVVMVPTDNTGEIGMRP”, -0.777.
For “HMTMEQAEFLSRQFNLLSQRLNDPSIEWQDIADLRSEYTGEDEHRDTIRKGAKLFYEYLEAGWIKN”, the “soluble fraction (log2)” value is -0.867.
For “HMTMKNPNGYGSVINLGKGRRRPWAARVTTGLVYDEKKDKLIQRYKYIGYADTRKEAHQILAEYNAGLPI” the value was 0.0906.
For “HMTMMTFGEKLQNARKGAGLSQEQLAEKLSVSRSAVAKWENDNGMPDIDNLKAIAQLLDVSIDYLLEN” the value was -0.71; for “HMTMNLIEIGHVVGARRAELGLTQAQLAHLSGLSRQTVVGLEKGTLSDLGVNRVGQVMAVLGLDS”, -0.242.
For “HMTMPDFGYMRVSYAEARRQLQAIGISVSTIEKVEDPSHTSATGDMVISQYPAAGSKIEGTVTLYVSVAS” the value was 0.332; for “HMTMSFSELLRGLRKSRGMSQAELATAVGLSQAQVSQIETGKLLPSPELIEKLAALYGIALGSA”, 0.0703.
With “HMTMTKELGQRIRAERTARKMTQEELAERADLHPTYIGQVERGEKSLTIASLEKIVEGLGISFSDLFEN”, the “soluble fraction (log2)” value is -0.0395.
To “HMTMVKYRYLTDGELKEFEEEFKHFLIANGLHSEEWERLNNEDSNKAIEVVALFSNLILDKV” belongs -1.06.
To “HMTMVLPDAARDKLKAIGLSIEHVEPSPVKDIFTVISREGVSYVSKDGDYIFTGSLFHVKGKDVVNTTEQA” belongs -0.275; to “HMTNEAFITPSVLEWAIKRAGVSAESIHKKAEQWVSGKARPTFKQAVDIAKTLQIPFGYLWLKEPPKEQ”, -0.442.
For “HMTNELVNVNKLLDVMEPSIPLTALEIMTRLGIKSKETLRNSYLNPAIKLGMINLTSPLKPTSKNQMYYK” the value was 0.111; for “HMTNKSKQRRNEILRASQELFNKKGFHDTSINDIMRRVGAAKGVFYYYFETKDQILDTLIEQHIA”, -0.471; for “HMTNLTPKQQQIYQFIRASTQANGYPPTLREIGQQVGVRSPSTVKYHLDNLRTLGLLHWDGGKTRSITLP”, 0.0274.
In the case of “HMTNNFIVTWRNYNEEVLEIDVNVKKGSMPKYNGKTPEREGYQFVGWDPEITEVTKDITYVAQFM”, the “soluble fraction (log2)” value is -0.0457.
To “HMTNQKEITYSQFRQELDQGSIKSVSLQGSRIRGTYVDGGISFRTLAPNDADLIPSLMKHKVDIQVLPED” belongs 0.0675.
To “HMTNSTGWSKSGGTQVTIREGETIYNLSRRYGVPAKSIMEANGIADATAVRAGQRISIPTYSY” belongs 0.22; to “HMTNVDELIGKEAVVVKEIRPYTTGEVKLDGKVWRAMSESKQVYKVDEIVTVLRIEGVTMII”, -0.142.
As to “HMTNVETLVRMRLRSIRTTLGYSLDEIAERSNLSASTVSRIETGKRALSIDVLVPLAAALQVSVDDLLRAE”, the “soluble fraction (log2)” value was -1.31.
For “HMTNYREILRLRSLGLNHSRIAESMGISRPTVIAALQRAQTQELNWQAAESLSDIDLAQRLNP” the value was -0.2.
For “HMTNYYTVTFKEGDTVLKEVSVHSGDGVPYAVAPKRDDIVGWSYNGNTYTTDLNTLKIKKEVTFTAVT” the value was 0.183.
To “HMTPAIEKTAVIVFINGKKYYVHTVKSGETLYSIAKAYKVDEKVIKEHNPNVADGLRIDQTVKIPVPEQVK” belongs -0.0592; to “HMTPAPHESLTDREMEVLKLLAQGLSNQEIADKLFIGVKTVKYHITNIFSKLGVEDRTQAAIYAHKQGLA”, -0.185; to “HMTPDDSYIAGYAAGILKHQFLIDAPELIVRNGTITIPADKVSAGDRAKVVQILSGIPGVTRVEVG”, 0.368.
For “HMTPDVHRGDTITVSLRAGAIRVRVPAKALEEGAAGGEIRVVNLTGGREYRVRVTGPGTAEAIL”, the “soluble fraction (log2)” value stood at 0.0112.
To “HMTPEGAYTVSEIVKVINSFADEYKVPFTMHVSGYKYEEIAQQLGLPIGTVKSRIFFARKRLQELLN” belongs -1.03; to “HMTPEPVTMYITSLTEFRSEPNTEAGIIKLLDAYEEVEMIESRGEWSKISYGDQIGYILSEFLTAENRT”, -1.78; to “HMTPILTAQQVVAALQAAGYRNVHDLEFEHGRWEADAVNAAGQRVELHINPYTGAIERERLD”, -0.0319.
For “HMTPKTSVPKPGQTVVVRKGDTIYALARIHDITPADLIAWNRLDNPSQIYPGQVIRLYPQGA” the value was 0.105; for “HMTPKVDLTVAEDGSASAVIAGLRVEIDAAGKVTAVAPADGTTDLSSVAPEAVKEAMDNALAAYTASKG”, 0.167; for “HMTPLFNQGEVLKGFVLQTGTNNRVLLQIGTAKVLADAQTPLKAGEQLTLRVEATGPRTVLQILG”, 0.101.
For “HMTPLILTAQEGGERLDAFVASQVEDLTRSAAQRLLEQGAVTSGGKPLKKNAKTTPGMVVEVLLPDPQ” the value was -0.0145; for “HMTPPPTNSREWMEWGISHGLDANLDRSGQVVFYTDDRVVADAAELSGADLERDNMGQFVIYTGAYDKG”, -0.743; for “HMTPQEQWNNAYLLAKDYYDANGNLDIDEKYKTKDGFELGSWLTTQRNVYKRGKLSPEKTKKLEEIGISF”, -0.107.
As to “HMTPQGALDYSRNAKYLRDQVTAINYLKQARLSLNTTDANYRQTLEQINQAIAKHNQALQQAGVQSQQLAT”, the “soluble fraction (log2)” value amounted to 0.22.
To “HMTPTPQQNNILVGQTGTTLTRLAPMGKVRVGEVTAEAKTIDGYINPRQSVEVIGFENTVVIVRAV” belongs 0.22; to “HMTPVIINESGGDQDTRIEGLNDNNLLYVDASTDRVGVGVATPTQKLDVNGDVAISGGSLYLSQ”, -0.0183.
For “HMTPVKAPLPGVVTKINVSVGQQVKKGENVLVLEAMKMENNIAAEADGTVSGIAVKAGDSVLEGAVLLTI” the value was -0.0107; for “HMTPVTYELTVQSGAGQRIDKYLSEQLADLTRSYLQKLLKDGGVTVNGKTVKSNYKLSENDQIFLEVPDA”, 0.0962; for “HMTPVYLNARQKQILAFLKREEPAKVGDIAHALKTISINTLKKDLLYLRQKNLIESHGVLKGTIYTVK”, 0.209.
To “HMTQEFIVPKVTGYTVEDAMNLSGVKDVFEITVDSTEKSDQPAGIILFQDPKDGSSRKSDLVIHVVVSAGS” belongs 0.0901; to “HMTQEQKQQISDQLRAYVEQKGSGNKAAASMNGVSSATISKVLAGKWETISEDMWRSIAAQTGH”, -0.156.
For “HMTQFSLTTEEINVLKKSYSEFTDSDKELFNKILEKYNKFKNESSNDIAFEAKILEKLQEIENFYE”, the “soluble fraction (log2)” value was -1.45.
For “HMTQMSVLFSELEAKDAATIADKLRERNIPYELSNNGSTILIPQEVLHDTRLSLASEGLPES” the value was 0.263.
